According to patent US20170335007A1 (Xencor, published 2017):
Numbering of substitutions follows the chain as printed. Blank lines part the entries; values can stand above or below the binder they belong to.

Experiments:
[1] = target: T1, recombinant human CD39 (R&D Systems) (human, UniProt P49961 38-478); assay: SPR (ProteOn XPR36); antibody captured by anti-mouse antibody, CD39 in solution, 1:1 fit; ProteOn XPR36 SPR, Table 9
T1 construct: bought; also called CD39 antigen (R&D Systems); ENTPD1
T1 sequence: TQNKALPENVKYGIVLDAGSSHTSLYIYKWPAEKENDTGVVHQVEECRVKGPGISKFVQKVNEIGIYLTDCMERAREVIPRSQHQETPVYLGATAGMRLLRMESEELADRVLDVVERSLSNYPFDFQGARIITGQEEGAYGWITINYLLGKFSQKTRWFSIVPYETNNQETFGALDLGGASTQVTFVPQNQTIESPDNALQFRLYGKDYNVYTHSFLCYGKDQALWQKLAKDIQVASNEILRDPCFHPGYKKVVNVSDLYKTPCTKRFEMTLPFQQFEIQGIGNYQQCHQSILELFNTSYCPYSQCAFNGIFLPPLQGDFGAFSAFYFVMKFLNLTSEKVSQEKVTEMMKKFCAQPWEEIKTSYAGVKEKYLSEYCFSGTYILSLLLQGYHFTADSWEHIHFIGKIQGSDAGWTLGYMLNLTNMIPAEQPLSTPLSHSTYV
Procedure: (§1) Affinity measurements of four exemplary purified anti-CD39 antibodies (5-13A, 5-71A, 5-165C and 9-31A) were also carried on the ProteOn XPR36 (BioRad) using a GLM sensor chip. The running buffer contained 10 mM HEPES, 150 mM NaCl, 0.005% Tween-20 at pH 7.4. All data were collected at 25 degrees C. Anti-mouse capturing antibody was amine coupled at four densities on flow cells using standard s—NHS/EDC activation. A dilution series of […], 16.6, 5.5 and 1.85 nM CD39 antigen (R&D Systems) was tested for binding to the anti-CD39 antibody surfaces. The data were processed by subtracting the response from the inter-reference surfaces as well as the buffer blank injection. The processed response data from four density surfaces were globally fit to a simple 1:1 interaction model using Scrubber 2 (Biologic Software Pty Ltd).

[2] = target: T2, human CD39 expressed on cells (human, UniProt P49961 1-510); assay: cell-based or functional assay
T2 sequence: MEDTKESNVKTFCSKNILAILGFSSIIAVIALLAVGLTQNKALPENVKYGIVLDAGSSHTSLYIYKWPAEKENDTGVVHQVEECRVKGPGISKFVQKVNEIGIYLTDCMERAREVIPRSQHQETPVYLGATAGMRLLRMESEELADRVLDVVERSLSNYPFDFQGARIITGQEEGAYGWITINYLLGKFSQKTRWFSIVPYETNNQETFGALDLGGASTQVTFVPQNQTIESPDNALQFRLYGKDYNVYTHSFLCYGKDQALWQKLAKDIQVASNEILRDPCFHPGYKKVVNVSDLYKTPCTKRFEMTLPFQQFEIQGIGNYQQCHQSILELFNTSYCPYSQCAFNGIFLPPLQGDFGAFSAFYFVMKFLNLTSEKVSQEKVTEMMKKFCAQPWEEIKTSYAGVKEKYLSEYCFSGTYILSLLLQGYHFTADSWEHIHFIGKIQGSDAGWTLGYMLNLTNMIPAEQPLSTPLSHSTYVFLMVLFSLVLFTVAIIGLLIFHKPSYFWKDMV

[3] = target: T2, human CD39 expressed on cells; assay: flow cytometry on JVM-13 cells (endogenous human CD39)
Procedure: Binding of antibody was also assessed in a cell line that expresses endogenous human CD39 (e.g. the B-prolymphocytic leukemia cell line JVM-13). Thirty-five anti-CD39 antibodies as described in Example 2 were tested for their binding to JVM-13 cells. […] Median fluorescence intensities for each primary antibody concentration were used to derive a flow EC50/Kd using the one site—specific binding with Hill slope model in Prism (GraphPad Prism Software). Results are shown as Flow EC50 in Table 8.

[4] = target: T2, human CD39 expressed on cells; assay: cell-based or functional assay; remark: listed apart in the source
[5] = target: T2, human CD39 expressed on cells; assay: cell-based or functional assay; remark: listed apart in the source
[6] = target: T1, recombinant human CD39 (R&D Systems); assay: BLI (Octet QK384); antibody on anti-mouse IgG Fc sensor, recombinant human CD39 in solution
Procedure: Additional binding assays were conducted. Affinity measurements of thirty-five purified anti-CD39 antibodies as described in Example 2 were carried out on the OctetQK384 sytem (ForteBio). After coating anti-mouse IgG Fc sensors with a purified anti-CD39 antibody, association and dissociation of recombinant human CD39 (R&D Systems) was monitored. Affinity (KD) and kinetic constants (ka and kd) were derived using ForteBio's software.

[7] = target: T1, recombinant human CD39 (R&D Systems); assay: SPR (ProteOn XPR36); antibody captured by anti-mouse antibody, CD39 in solution, 1:1 fit
Procedure: as §1

- Kd [1]: 1.25 nM
- koff [1]: 0.000109 s⁻¹
- kon [1]: 87500 M⁻¹ s⁻¹
- % Inhibition of ATPase Activity in ARH-77 cells (antibody at 1200 ng/mL) [2]: -2.5%
- EC50 [3]: 0.11 nM
- % Inhibition of ATPase Activity in HUVEC cells (antibody at 900 ng/mL) [4]: -9.8%
- % Inhibition of ATPase Activity in IM-9 cells (antibody at 1200 ng/mL) [5]: -0.1%
- Kd [6]: 2.53 nM
- koff [6]: 0.000196 s⁻¹
- kon [6]: 77400 M⁻¹ s⁻¹
B1: anti-CD39 monoclonal antibody 5-165C (antibody, V domains shown)
VH: EVQLVESGGDLVKPGGSLKLSCAAFGFTFSRYGMSWVRQTPDKRLEWVATITSGGIYTYYPDSVKGRFTISRDNAKNTLYLQMSSLKSEETAMYYCARHGQFGDYYGMDYWGQGTSVTVSS
VL: DVVMTQTPLSLPVSLGDQASISCRSSQSLLHSNGNTYLHWYLQKPGQSPKLLIYKVSNRFSGVPDRFSGSGSGTDFTLKISRVEAEDLGVYFCSQSTHVPYTFGGGTKLEIK
notes: purified mouse hybridoma antibody, IgG2a isotype; also called R21-5-165C; R29-5-165C

- % Inhibition of ATPase Activity in ARH-77 cells (antibody at 1200 ng/mL) [2]: 3.6%
- EC50 [3]: 0.09 nM
- Kd [6]: 0.73 nM
- koff [6]: 5.22e-05 s⁻¹
- kon [6]: 71100 M⁻¹ s⁻¹
- Kd [7]: 0.09 nM
- koff [7]: 1.4e-05 s⁻¹
- kon [7]: 153000 M⁻¹ s⁻¹
B2: anti-CD39 monoclonal antibody 5-71A (antibody, V domains shown)
VH: DVQLVESGGGLVQPGGSRKLSCAASGFTFSSFGMHWVRQAPEKGLELVAYISSGSTIRYYSDTVKGRFTISRDNPKNTLFLQMTSLRSEDTAMYYCARFLYEGFRYGMDYWGQGTSVTVSS
VL: B1 VL with V3L, L29I, L30V, H39E, V90I, F92Y, S94F, S96G, T97S, Y101N
notes: purified mouse hybridoma antibody, IgG2a isotype; also called R21-5-71A; R29-5-71A

- % Inhibition of ATPase Activity in ARH-77 cells (antibody at 1200 ng/mL) [2]: 36.5%
- EC50 [3]: 0.26 nM
- % Inhibition of ATPase Activity in HUVEC cells (antibody at 900 ng/mL) [4]: 33.7%
- % Inhibition of ATPase Activity in IM-9 cells (antibody at 1200 ng/mL) [5]: 29.8%
- Kd [6]: 3.1 nM
- koff [6]: 0.000848 s⁻¹
- kon [6]: 273000 M⁻¹ s⁻¹
B3: anti-CD39 monoclonal antibody 9-8B (antibody, V domains shown)
VH: QIQLVQSGPELKKPGETVKISCKASGYTFTHYGMNWVKQAPGKGLKWMGWINTYTGELTYADDFKGRFAFSLETSASTAYLQINNLKNEDTATYFCARRAYYRYDYVMDYWGQGTSVTVSS
VL: DIVMTQSQKFMSTSVGDRVSVTCKASHNVGTNVAWYQQKPGQSPKALIYSASYRYSGVPGRFTGSGSGTDFTLTISNVQSEDLAEYFCHQYNNYPYTFGGGTKLEIK
notes: purified mouse hybridoma antibody, IgG2a isotype; also called R21-9-8B; R29-9-8B

- % Inhibition of ATPase Activity in ARH-77 cells (antibody at 1200 ng/mL) [2]: -6.2%
- EC50 [3]: 0.18 nM
- % Inhibition of ATPase Activity in HUVEC cells (antibody at 900 ng/mL) [4]: -4.4%
- % Inhibition of ATPase Activity in IM-9 cells (antibody at 1200 ng/mL) [5]: 0.8%
- Kd [6]: 1.52 nM
- koff [6]: 0.000159 s⁻¹
- kon [6]: 105000 M⁻¹ s⁻¹
- Kd [7]: 1.16 nM
- koff [7]: 0.000221 s⁻¹
- kon [7]: 191000 M⁻¹ s⁻¹
B4: anti-CD39 monoclonal antibody 5-13A (antibody, V domains shown)
VH: QVQLQQSGPELVKPGASVRISCKASGYTFTGYYVHWVKQRPGQGLEWIGWIYPGNVNTKYNEKFKAKATLTADKSSSTGYMQLSRLTSEDSAVYFCARSPYYGTTYYYTMDYWGQGTSVTVSS
VL: EIVLTQSPAFMAASPGEKVTITCSVSLIISSRNLHWYQQKSETSPKPWIYGTSNLASGVPVRFSGSGSGTSYSLTISSMEAEDAATYYCQQWSDYPLTFGSGTKLEIK
notes: purified mouse hybridoma antibody, IgG2a isotype; also called R21-5-13A; R29-5-13A
